{"source": "paper doi:10.1101/2025.08.14.670383", "target": "ADGRG1_h1h2: ADGRG1 receptor bearing the designed GAIN domain SS_h1h2, on HEK293T cells (human) (UniProt Q9Y653)", "sequence (Q9Y653 26-693 V174C/S218C)": "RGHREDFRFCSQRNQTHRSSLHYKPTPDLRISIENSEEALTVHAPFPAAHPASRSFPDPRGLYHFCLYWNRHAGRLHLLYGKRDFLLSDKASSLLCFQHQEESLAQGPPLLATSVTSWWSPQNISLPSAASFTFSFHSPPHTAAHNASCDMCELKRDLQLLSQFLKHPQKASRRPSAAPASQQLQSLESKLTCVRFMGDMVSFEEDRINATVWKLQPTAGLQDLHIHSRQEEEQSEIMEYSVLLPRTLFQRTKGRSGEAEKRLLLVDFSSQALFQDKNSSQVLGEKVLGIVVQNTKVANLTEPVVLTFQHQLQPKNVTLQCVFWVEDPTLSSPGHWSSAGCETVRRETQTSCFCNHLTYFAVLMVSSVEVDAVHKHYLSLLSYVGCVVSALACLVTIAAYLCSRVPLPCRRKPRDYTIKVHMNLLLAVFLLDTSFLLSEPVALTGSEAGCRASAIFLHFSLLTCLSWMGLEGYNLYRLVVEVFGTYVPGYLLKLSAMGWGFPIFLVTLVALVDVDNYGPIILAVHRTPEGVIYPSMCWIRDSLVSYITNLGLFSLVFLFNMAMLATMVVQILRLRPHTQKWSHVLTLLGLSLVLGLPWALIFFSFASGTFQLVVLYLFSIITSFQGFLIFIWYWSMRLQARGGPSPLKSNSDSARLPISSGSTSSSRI", "data": [{"substance": "native human collagen III (from UniProt P02461 154-1221) (ligand)", "values": [{"measurement": "Col3-induced increase in activity, SRE-luciferase assay in HEK293T cells", "value": "> 2", "unit": "fold"}]}]}
